Results reported in the supplement of paper PMC10126150.
± gives the standard deviation of the averaged measurements.

system: ATP; experiment: switch fluorescence ratio, 500 uM ATP over buffer (Cy3 cluster intensity, sum of 5 cycles each) (fold (ratio)); higher = stronger signal-on switching upon ATP binding; sequences stand for … in TCGTCGGCAGCGTCAGATGTGTATAAGAGACAGTTTTTTTTTTTTTTTTTTTTTTTTT…TC; details: aptamer strand: ATP DNA aptamer (quencher-CACCTGGGGGAGTATTGCGGAGGAAGG + anchor), 100 nM annealed; ATP concentration: 500 uM
How it was run: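 Exposure to 500 uM ATP lasted 15 min at 22 °C before imaging, and a selection-buffer image was taken beforehand, for Cy3-labelled switching-strand clusters on a modified Illumina MiSeq flow-cell annealed to 100 nM quencher-labelled ATP aptamer. Five buffer/ATP cycles were run with NaOH stripping and re-annealing between them. The fluorescence ratio per cluster is summed target-cycle over summed buffer-cycle Cy3 intensity, averaged per switch-domain sequence. Clusters outside 100-1000 RFU were excluded.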

| Sequence | switch fluorescence ratio |
| --- | --- |
| ACATGACGGG | 1.06 ± 0.015 |
| ACATGCCGGG | 1.03 ± 0.085 |
| ACATGGAGGG | 1.01 ± 0.057 |
| ACATGGGATT | 1.01 ± 0.043 |
| ACATGGGGAA | 0.994 ± 0.012 |
| ACATGTGGGG | 1.04 ± 0.025 |
| ACATTAAAAA | 1.26 ± 0.013 |
| ACATTAGTTT | 1.013 ± 0.0056 |
| ACATTATGGA | 1.035 ± 0.0081 |
| ACATTATTGT | 0.982 ± 0.011 |
| ACATTATTTT | 1.02 ± 0.025 |
| ACATTGAGCG | 1.03 ± 0.028 |
| ACATTGAGGG | 1.057 ± 0.0028 |
| ACATTGATCG | 1.03 ± 0.017 |
| ACATTGATGG | 1.028 ± 0.00017 |
| ACATTGGCTA | 1 ± 0.035 |
| ACATTGTGTA | 0.9955 ± 0.0068 |
| ACATTGTTAT | 1.07 ± 0.1 |
| ACATTTCAAA | 0.987 ± 0.0069 |
| ACATTTGCCC | 1.069 ± 0.003 |
| ACATTTTCGT | 0.991 ± 0.032 |
| ACCAAACGTG | 1.23 ± 0.055 |
| ACCAAAGAGA | 0.993 ± 0.013 |
| ACCAAGCTTT | 1.04 ± 0.016 |
| ACCAATTTTT | 1.03 ± 0.026 |

| Sequence | switch fluorescence ratio |
| --- | --- |
| ACCACATATC | 1.1 ± 0.06 |
| ACCACCAGAA | 1.13 ± 0.02 |
| ACCACGGGCG | 1.09 ± 0.018 |
| ACCAGAGGTA | 1.01 ± 0.014 |
| ACCAGGATGC | 1.225 ± 0.0042 |
| ACCAGGGACG | 1.02 ± 0.073 |
| ACCAGGGCTT | 1.08 ± 0.021 |
| ACCAGGGTGG | 1.03 ± 0.068 |
| ACCAGGTCGT | 1.51 ± 0.05 |
| ACCAGTTATT | 1.08 ± 0.14 |
| ACCATGTATC | 0.998 ± 0.026 |
| ACCATTATTT | 1.03 ± 0.014 |
| ACCATTCAAA | 1 ± 0.021 |
| ACCCAAATCA | 1.04 ± 0.019 |
| ACCCAGACGC | 1.35 ± 0.058 |
| ACCCATGCTT | 1.06 ± 0.013 |
| ACCCCAAATG | 1.124 ± 0.0098 |
| ACCCCATGTT | 1.86 ± 1 |
| ACCCCGGTCG | 1.167 ± 0.0062 |
| ACCCGTTGTT | 1.01 ± 0.039 |
| ACCCTAGGGT | 0.994 ± 0.035 |
| ACCCTCGAGA | 1.06 ± 0.06 |
| ACCCTGGCAA | 1.36 ± 0.41 |
| ACCCTGGTAT | 1.02 ± 0.017 |
| ACCCTTTTTG | 0.986 ± 0.025 |

| Sequence | switch fluorescence ratio |
| --- | --- |
| ACCGAATAAT | 1.03 ± 0.019 |
| ACCGACGGGA | 2.72 ± 2 |
| ACCGACTTGC | 1.09 ± 0.018 |
| ACCGATGCAC | 4.12 ± 1.2 |
| ACCGCCGTCA | 1.08 ± 0.012 |
| ACCGCGTTTT | 1.03 ± 0.041 |
| ACCGCTTGTA | 1.05 ± 0.052 |
| ACCGGAGCGG | 1.61 ± 0.042 |
| ACCGGATATA | 1.006 ± 0.0081 |
| ACCGGATCGT | 0.9828 ± 0.0035 |
| ACCGGCGAGC | 1.01 ± 0.016 |
| ACCGGCGTAG | 1 ± 0.016 |
| ACCGGCTGCG | 1.08 ± 0.08 |
| ACCGGGCCGA | 1.04 ± 0.016 |
| ACCGGGCTTT | 0.988 ± 0.024 |
| ACCGGGGATT | 1 ± 0.018 |
| ACCGGGGCTA | 1.03 ± 0.031 |
| ACCGGGGTGG | 0.991 ± 0.05 |
| ACCGGGGTTT | 1 ± 0.051 |
| ACCGGTGCTG | 0.98 ± 0.042 |
| ACCGGTTAGC | 1.02 ± 0.015 |
| ACCGTAAACG | 0.999 ± 0.12 |
| ACCGTGTATG | 1.01 ± 0.027 |
| ACCGTGTTAT | 0.9583 ± 0.0037 |
| ACCTAAAGGA | 1.02 ± 0.016 |

| Sequence | switch fluorescence ratio |
| --- | --- |
| ACCTAATTAG | 1.06 ± 0.073 |
| ACCTCGAAGA | 1.03 ± 0.014 |
| ACCTGCTTTT | 1.05 ± 0.051 |
| ACCTGGCCTG | 0.999 ± 0.021 |
| ACCTGGCGTA | 1.04 ± 0.0016 |
| ACCTGGTCGT | 1.05 ± 0.048 |
| ACCTGTAATA | 1.05 ± 0.0062 |
| ACCTGTATA | 1.054 ± 0.0037 |
| ACCTTAGTAT | 1.02 ± 0.022 |
| ACCTTATCCT | 1.16 ± 0.012 |
| ACCTTTTTCG | 1.07 ± 0.0096 |
| ACGAAAATGG | 1.05 ± 0.062 |
| ACGAAAGGGA | 1.11 ± 0.029 |
| ACGAAATCGG | 1.03 ± 0.018 |
| ACGAAATGAC | 1.68 ± 0.037 |
| ACGAAGGGGT | 1.03 ± 0.021 |
| ACGACAGCAG | 1.39 ± 0.033 |
| ACGACCGACA | 1.95 ± 0.29 |
| ACGACCGGGT | 1.2 ± 0.037 |
| ACGACTGAAG | 1.014 ± 0.0015 |
| ACGACTTCTT | 0.989 ± 0.019 |
| ACGAGAGGGG | 0.996 ± 0.048 |
| ACGAGTTACT | 1.1 ± 0.013 |
| ACGATAACTT | 1.21 ± 0.034 |
| ACGATACTTT | 1.37 ± 0.015 |
